Test results: US20250115641A1 (published 2025)
Bridge positions count the residues as written; N and C are the ends. Square brackets hold non-standard residues; d marks the D form. Primed or numbered codes have the meaning given here. S5 = C=CCCC[C@](C)(N)C(=O)O; Nle = CCCC[C@H](N)C(=O)O; FITC′ = fluorescein; βAla = NCCC(=O)O

T1: human NLRP3^PYD (residues 3-110, C-terminal 6 x histidine) (human, UniProt Q96P20 3-110)
T1 chain: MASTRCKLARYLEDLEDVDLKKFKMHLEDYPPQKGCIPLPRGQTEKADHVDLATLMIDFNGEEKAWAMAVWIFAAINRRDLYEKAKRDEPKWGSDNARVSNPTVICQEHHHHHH


Tests used:
[1] = target: GST-NLRP3PYD; assay: fluorescence anisotropy
[2] = target: T1, human NLRP3^PYD (residues 3-110, …); assay: FP
[3] = target: T2, human N-terminally GST tagged ASC^PYD (human, UniProt Q9ULZ3 1-106); assay: FP
[4] = target: T2, human N-terminally GST tagged ASC^PYD; assay: fluorescence anisotropy

T2 sequence (Q9ULZ3 1-106): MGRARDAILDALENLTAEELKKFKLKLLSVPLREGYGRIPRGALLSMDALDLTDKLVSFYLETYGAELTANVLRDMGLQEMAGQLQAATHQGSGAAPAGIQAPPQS

Binder	Kd [1]	Kd [2]	Kd [3]	Kd [4]
{FITC′}-[βAla]Q[S5]LRR[S5]QWKLWTA-NH2 (staple 3-7) [fSAH-POP1-13]	12 µM			
{FITC′}-[βAla]EELKKFK[Nle]KLGTV-NH2 [fPOP1-H2]	27 µM	9.2 µM	> 10 µM	> 56 µM
{FITC′}-[βAla]Q[S5]LRR[S5]QWKLWTS-NH2 (staple 3-7) [fSAH-POP1-16]	15 µM			
AQXLKKXKXKLGTA (N-terminal fluorescein (FITC) on β-alanine; S5 = (S)-2-(4-pentenyl)alanine residues covalently linked (hydrocarbon staple); made on Rink amide resin) [fSAH-POP1-5]	30 µM		> 10 µM	> 56 µM
AEXLKKXKXKLGTV (N-terminal fluorescein (FITC) on β-alanine; S5 = (S)-2-(4-pentenyl)alanine residues covalently linked (hydrocarbon staple); made on Rink amide resin) [fSAH-POP1-4]	32 µM		> 10 µM	> 56 µM
XQXLKKXKXKLWTA (N-terminal fluorescein (FITC) on β-alanine; S5 = (S)-2-(4-pentenyl)alanine residues covalently linked (hydrocarbon staple); made on Rink amide resin) [fSAH-POP1-6]	43 µM			> 56 µM
{FITC′}-[βAla]Q[S5]LRK[S5]QWKLWTA-NH2 (staple 3-7) [fSAH-POP1-12]	20 µM		0.59 µM	
AQXLRKXQXKLWTA (not fully specified; N-terminal fluorescein (FITC) on β-alanine; S5 = (S)-2-(4-pentenyl)alanine residues covalently linked (hydrocarbon staple); norleucine (NL) at the position of M25 of POP1; made on Rink amide resin) [fSAH-POP1-10]	31 µM			> 56 µM
